T1: PDGFR-beta extracellular domain construct D1-D3 (human)
T1 construct: also called D1-3
T1 chain: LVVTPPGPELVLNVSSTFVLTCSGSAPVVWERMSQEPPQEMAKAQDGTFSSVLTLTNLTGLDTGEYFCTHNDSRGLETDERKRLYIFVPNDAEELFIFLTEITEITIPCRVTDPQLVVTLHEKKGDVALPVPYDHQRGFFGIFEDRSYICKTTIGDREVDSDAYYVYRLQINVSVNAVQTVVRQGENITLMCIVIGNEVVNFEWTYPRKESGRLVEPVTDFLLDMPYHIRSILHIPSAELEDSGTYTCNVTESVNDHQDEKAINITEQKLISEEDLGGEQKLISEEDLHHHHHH

T2: PDGFR-beta extracellular domain construct D1-D4 (human)
T2 construct: also called D1-4
T2 chain: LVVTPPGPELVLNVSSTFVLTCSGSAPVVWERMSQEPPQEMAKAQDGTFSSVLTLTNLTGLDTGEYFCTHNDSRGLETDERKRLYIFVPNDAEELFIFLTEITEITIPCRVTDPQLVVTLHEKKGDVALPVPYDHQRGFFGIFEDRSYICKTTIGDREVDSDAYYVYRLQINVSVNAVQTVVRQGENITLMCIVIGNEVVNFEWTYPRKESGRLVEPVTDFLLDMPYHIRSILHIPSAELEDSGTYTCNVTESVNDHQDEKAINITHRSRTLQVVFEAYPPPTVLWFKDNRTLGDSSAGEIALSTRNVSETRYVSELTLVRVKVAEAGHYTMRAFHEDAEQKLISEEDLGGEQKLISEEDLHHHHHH

T3: PDGFR-beta extracellular domain construct D1-D2 (human)
T3 construct: also called D1-2
T3 chain: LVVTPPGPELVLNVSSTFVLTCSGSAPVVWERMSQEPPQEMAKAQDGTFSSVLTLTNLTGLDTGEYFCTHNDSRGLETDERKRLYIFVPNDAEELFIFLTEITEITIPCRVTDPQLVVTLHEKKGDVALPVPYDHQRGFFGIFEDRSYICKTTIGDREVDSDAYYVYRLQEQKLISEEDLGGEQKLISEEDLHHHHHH

T4: PDGFR-beta extracellular domain construct D1 (human)
T4 chain: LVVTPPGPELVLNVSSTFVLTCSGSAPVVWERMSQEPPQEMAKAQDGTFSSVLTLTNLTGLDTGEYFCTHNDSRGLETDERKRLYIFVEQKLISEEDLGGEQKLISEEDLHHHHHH


What was measured:
hPDGFRb.mmh [1] = biological target: T5, hPDGFRb.mmh (human, UniProt P09619 33-531); experiment: Octet BLI cross-competition, 25 C; hPDGFRb.mmh on anti-Penta-His tips pre-saturated with mAb-1 H4H3305N (row 8)
T5 construct: Soluble monomeric construct; also called soluble human PDGFR-beta.mmh
Method: (§1) A cross-competition assay was conducted to assess the ability of select antibodies to compete with one another for binding to human PDGFR-beta. […] Each PDGFR-beta.mmh-coated sensor tip was saturated for 5 min with a first anti-PDGFR-beta antibody (Mab #1; 50 μg/mL). Next, each sensor tip was saturated with a solution of a second anti-PDGFR-beta antibody (Mab #2). The real time response of Mab #2 binding to PDGR-beta.mmh pre-complexed with Mab #1 was then monitored. All assays were performed at 25° C. with a flow rate of 1000 rpm on an Octet RED384 biosensor in Octet HBST buffer according to manufacturer's instructions (ForteBio Corp., Menlo Park, Calif.). Results are illustrated in FIG. 2.

hPDGFRb.mmh [2] = biological target: T5, hPDGFRb.mmh; experiment: Octet BLI cross-competition, 25 C; hPDGFRb.mmh on anti-Penta-His tips pre-saturated with mAb-1 H4H3103S (row 4)
Method: as §1

[3] = biological target: T1, PDGFR-beta extracellular domain …; experiment: SPR, mAb captured, construct at 50nM
Method: (§2) Four different anti-PDGFR-beta antibodies were tested for binding to the various constructs by surface plasmon resonance (Biacore). Briefly, 150-200 RU's of anti-PDGFR beta antibody was captured via an anti-human Fc CM5 chip. Next, the individual domain constructs, or full-length PDGFR beta, was applied over the antibody-bound surface at a concentration of 50nM. The ability of the various antibodies to bind to the various domain constructs was measured. (−)=No binding observed; (+)=Binding observed; ND=Not determined.

[4] = biological target: T2, PDGFR-beta extracellular domain …; experiment: SPR, mAb captured, construct at 50nM
Method: as §2

[5] = biological target: T3, PDGFR-beta extracellular domain …; experiment: SPR, mAb captured, construct at 50nM
Method: as §2

[6] = biological target: T4, PDGFR-beta extracellular domain …; experiment: SPR, mAb captured, construct as analyte
Method: as §2

hPDGFRb.mmh [7] = biological target: T5, hPDGFRb.mmh; experiment: Octet BLI cross-competition, 25 C; hPDGFRb.mmh on anti-Penta-His tips pre-saturated with mAb-1 H4H3099S (row 6)
Method: as §1

[8] = biological target: T1, PDGFR-beta extracellular domain …; experiment: SPR, mAb captured, construct as analyte
Method: as §2

[9] = biological target: T2, PDGFR-beta extracellular domain …; experiment: SPR, mAb captured, construct as analyte
Method: as §2

[10] = biological target: T3, PDGFR-beta extracellular domain …; experiment: SPR, mAb captured, construct as analyte
Method: as §2

Row | Response of mAb-2 Binding to hPDGFRβ.mmh Pre-Complexed with mAb-1 (nm) (hPDGFRb.mmh [1]) | Response of mAb-2 Binding to hPDGFRβ.mmh Pre-Complexed with mAb-1 (nm) (hPDGFRb.mmh [2]) | binding result [3] | binding result [4] | binding result [5] | binding result [6] | Response of mAb-2 Binding to hPDGFRβ.mmh Pre-Complexed with mAb-1 (nm) (hPDGFRb.mmh [7]) | binding result [8] | binding result [9] | binding result [10] | Binder
1 | 0.27 | 0.02 | binds | binds | binds | no binding (tested: 50nM) | 0.27 |  |  |  | H4H3374N (antibody, human IgG4, V domains shown, human IgG4 Fc (H4H prefix)) VH: QLQLQESGPGLVKPSETLSLTCTVSGGSITSSSYYWGWIRQPPGKGLEWIGSIYYRGSTNYNPSLKSRVTISVDSSKNQFYLKVSSVTAVDTAVYYCARQNGAARPSWFDPWGQGTLVTVSS VL: EIVLTQSPDTISLSPGERATLSCRASQSISSIYLAWYQQKPGQAPRLLIYGASSRVTGIPDRFSVSGSGTDFTLTISRLEPEDFAVYYCQHYGISPFTFGPGTKVDIR
2 |  | 0.25 |  |  |  | no binding (tested: 50nM) | 0 | no binding (tested: 50nM) | no binding (tested: 50nM) | no binding (tested: 50nM) | H4H3305N (antibody, human IgG4, V domains shown, human IgG4 Fc (H4H prefix)) VH: QLQLQESGPGLVKPSETLSLTCIVSGGSISSSSYYWGWIRQPPGKGLEWIGSLYYSGITFYNPSLKSRVTISVDTSKNQFSLTLTSVTAADTAVFYCARHRVMASSPFDHWGQGTLVTVSS VL: not shown

Second part, the binder before the results:

Row | Binder | Response of mAb-2 Binding to hPDGFRβ.mmh Pre-Complexed with mAb-1 (nm) (hPDGFRb.mmh [1]) | Response of mAb-2 Binding to hPDGFRβ.mmh Pre-Complexed with mAb-1 (nm) (hPDGFRb.mmh [2]) | binding result [3] | binding result [4] | binding result [5] | binding result [6] | Response of mAb-2 Binding to hPDGFRβ.mmh Pre-Complexed with mAb-1 (nm) (hPDGFRb.mmh [7]) | binding result [8] | binding result [9] | binding result [10]
3 | H4H3094P (antibody, human IgG4, V domains shown, also called H4H3394P) VH: EVQLVESGGGLVQPGGSLRLSCAASGFTFSSYWMSWVRQAPGKGLEWVANMNQDGSETHYVDSVKGRLSISRDNAKKSLFLHMNSLRAEDTAVYFCARDLVPPRQDDYYYYFGMDVWGHGTTVTVSS VL: DIQMTQSPSTLSASVGDRVTITCRASQSISDWLAWYQQKPGKAPKLLIFKASTLESGVPSRFSGSGSGTEFTLTISSLQPDDFATYYCQQYNSYSRTFGQGTKVEIK | 0.25 | 0.02 | binds | binds | binds | no binding (tested: 50nM) | 0.25 |  |  | 
4 | H4H3099S (antibody, human IgG4, V domains shown, human IgG4 Fc (H4H prefix)) VH: QITLKESGPTLVKPTQTLTLTCTFSGFSLTTTGVGVGWIRQPPGKALEWLALIYWNDLKRYSPSLKNRLTITKDTSRHQVVLTMTNMDPMDTATYYCAHRPLYYGSGSGWFDPWGPGTTVTVSS VL: not shown |  | 0.34 |  |  |  | no binding (tested: 50nM) |  | no binding (tested: 50nM) | no binding (tested: 50nM) | no binding (tested: 50nM)
